Measured values: patent US20170088602A1 (Bristol-Myers Squibb, published 2017)
Like-named read-outs stand apart in the source and are kept apart here.

Tests used:
[1] = molecular target: T1, human Activin A (R&D Systems) (human, UniProt P08476 311-426); assay: cell-based or functional assay
T1 sequence (looked up): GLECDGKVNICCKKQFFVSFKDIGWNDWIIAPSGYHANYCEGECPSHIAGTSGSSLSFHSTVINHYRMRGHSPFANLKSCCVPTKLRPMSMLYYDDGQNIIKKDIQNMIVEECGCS

[2] = molecular target: T2, human myostatin (mature, recombinant; R&D Systems) (human, UniProt O14793 267-375); assay: cell-based or functional assay
T2 sequence: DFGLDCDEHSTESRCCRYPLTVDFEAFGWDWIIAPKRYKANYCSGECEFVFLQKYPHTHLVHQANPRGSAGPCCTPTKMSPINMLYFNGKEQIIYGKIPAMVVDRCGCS

[3] = molecular target: T3, human BMP-11 (GDF-11; R&D Systems) (human, UniProt O95390 299-407); assay: cell-based or functional assay
T3 sequence (looked up): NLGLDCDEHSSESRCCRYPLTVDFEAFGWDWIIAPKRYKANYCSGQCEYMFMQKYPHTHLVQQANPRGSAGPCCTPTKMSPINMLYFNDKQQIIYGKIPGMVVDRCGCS

[4] = molecular target: T2, human myostatin (mature, recombinant; …); assay: cell-based or functional assay; remark: listed apart in the source
[5] = molecular target: T1, human Activin A (R&D Systems); assay: SPR format A, 25C
Outline: (§1)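 Fc-fusion captured on an anti-human Fc antibody CM5 surface; anti-myostatin Adnectin injected over a concentration range in HBSP buffer. Regeneration used two 30 s pulses of 3M MgCl₂; reference-subtracted sensorgrams fitted to a 1:1 binding model.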

[6] = molecular target: T2, human myostatin (mature, recombinant; …); assay: SPR format A, 25C
Outline: as §1

[7] = molecular target: T3, human BMP-11 (GDF-11; R&D Systems); assay: SPR format A, 25C
Outline: as §1

[8] = molecular target: T1, human Activin A (R&D Systems); assay: cell-based or functional assay; remark: listed apart in the source
[9] = molecular target: T2, human myostatin (mature, recombinant; …); assay: cell-based or functional assay; remark: listed apart in the source
[10] = molecular target: T3, human BMP-11 (GDF-11; R&D Systems); assay: cell-based or functional assay; remark: listed apart in the source
[11] = molecular target: T2, human myostatin (mature, recombinant; …); assay: competitive HTRF, alanine scan
[12] = molecular target: T2, human myostatin (mature, recombinant; …); assay: cell-based or functional assay; remark: listed apart in the source
[13] = molecular target: T2, human myostatin (mature, recombinant; …); assay: cell-based or functional assay; remark: listed apart in the source
[14] = molecular target: T2, human myostatin (mature, recombinant; …); assay: HTRF competition binding assay, alanine mutant against 3116_A06

B1: 2062_G02 (designed binder)
chain: MGVSDVPRDLEVVAATPTSLLISWVSPRGRARYYRITYGETGGNSPVQEFTVPGRGSTATISGLKPGVDYTITVYAVTIYRDGMSHHDPISINYRTEIDKPSQHHHHHH
notes: also called ATI-1134
With B1 the “ARE-luciferase IC50” value [1] was greater than 1500 nM, the “ARE-luciferase IC50” value [2] was 205 nM and the “ARE-luciferase IC50” value [3] was 1500 nM. The “pSmad2 IC50, 12-point” value [4] was 59.1 nM, the binding result [5] was “no binding” and the Kd [6] was 48.8 nM. For the same binder, the Kd [7] was 697 nM.

B2: 2523_G06 (designed binder)
chain: MGVSDVPRDLEVVAATPTSLLISWWAPLGLARYYRITYGETGGNSPVQEFTVPGRGSTATISGLKPGVDYTITVYAVTIFRTGMVQYDPISINYRTEIDKPSQHHHHHH
With B2 the “ARE-luciferase IC50” value [1] was greater than 2000 nM, the “ARE-luciferase IC50” value [2] was 4.2 nM and the “ARE-luciferase IC50” value [3] was 46 nM. The “pSmad2 IC50, 12-point” value [4] was 0.78 nM, the binding result [5] was “no binding” and the Kd [6] was 1.47 nM. The Kd [7] was 10.7 nM.

B3: 2525_D05 (designed binder)
chain: MGVSDVPRDLEVVAATPTSLLISWSLPYAGHLNYYRITYGETGGNSPVQEFTVPGRGVTATISGLKPGVDYTITVYAVTLTKSQLIHYMPISINYRTEIDKPSQHHHHHH
With B3 the “ARE-luciferase IC50” value [1] was greater than 1000 nM, the “ARE-luciferase IC50” value [2] was 0.11 nM and the “ARE-luciferase IC50” value [3] was 3.9 nM. For the same binder, the “pSmad2 IC50, 12-point” value [4] was 0.2 nM, the binding result [5] was “no binding” and the Kd [6] was 1.28 nM. It also gave a Kd [7] of 1.99 nM.

B4: ATI-1107 [40K 2-branch PEG] (designed binder)
chain: MGVSDVPRDLEVVAATPTSLLISWSLPHAGHVNYYRITYGETGGNSPVQEFTVPGRGVTATISGLKPGVDYTITVYAVTLTKSQMIHYMPISINYRTGSGCHHHHHH
modifications: 40K 2-branch PEG on the Cys of the GSGC tail
notes: cysteine mutant of 1979_B06
With B4 the binding result [5] was “no binding”, the Kd [6] was 128 nM and the Kd [7] was roughly 300 nM. For the same binder, the “ARE-luciferase IC50” value [8] was greater than 2000 nM, the “ARE-luciferase IC50” value [9] was 19 nM and the “ARE-luciferase IC50” value [10] was 888 nM.

B5: 3116_A06 G30A (designed binder)
chain: MGVSDVPRDLEVVAATPTSLLISWSLPHQAKANYYRITYGETGGNSPVQEFTVPGRGVTATISGLKPGVDYTITVYAVTVTDTGYLKYKPISINYRTEIDKPSQHHHHHH
With B5 the IC50 [11] was 5.1 nM, the “Myostatin ARE-luc IC50” value [12] was 40 nM and the “ARE-luciferase cell-based assay, IC50 relative to parent sequence” value [13] was greater than 10 fold. The “fold increase in IC50 relative to the parental sequence (WT)” value [14] was greater than 10 fold.

B6: 3116_A06 V80A (designed binder)
chain: MGVSDVPRDLEVVAATPTSLLISWSLPHQGKANYYRITYGETGGNSPVQEFTVPGRGVTATISGLKPGVDYTITVYAVTATDTGYLKYKPISINYRTEIDKPSQHHHHHH
For B6, the IC50 [11] was 4 nM, the “Myostatin ARE-luc IC50” value [12] was greater than 100 nM and the “fold increase in IC50 relative to the parental sequence (WT)” value [14] was greater than 10 fold.

B7: 3116_A06 T81A (designed binder)
chain: MGVSDVPRDLEVVAATPTSLLISWSLPHQGKANYYRITYGETGGNSPVQEFTVPGRGVTATISGLKPGVDYTITVYAVTVADTGYLKYKPISINYRTEIDKPSQHHHHHH
In the case of B7, the IC50 [11] is reported as 4.9 nM, the “Myostatin ARE-luc IC50” value [12] is reported as 32 nM and the “ARE-luciferase cell-based assay, IC50 relative to parent sequence” value [13] is reported as greater than 10 fold. The “fold increase in IC50 relative to the parental sequence (WT)” value [14] was greater than 10 fold.

B8: 3116_A06 Y88A (designed binder)
chain: MGVSDVPRDLEVVAATPTSLLISWSLPHQGKANYYRITYGETGGNSPVQEFTVPGRGVTATISGLKPGVDYTITVYAVTVTDTGYLKAKPISINYRTEIDKPSQHHHHHH
For B8, the IC50 [11] was 11 nM, the “Myostatin ARE-luc IC50” value [12] was greater than 100 nM and the “fold increase in IC50 relative to the parental sequence (WT)” value [14] was greater than 10 fold.
